From publication PMC9257651
One block for each substance: values may come before it.

Tests used:
[1] = biological target: ClpP1 co-expressed with ClpP2 in E. coli (L. monocytogenes); experiment: SEC
[2] = biological target: Full-length ClpP2 with a C-terminal Strep-tag II (tetradecamer, ClpP2_(14)) (L. monocytogenes); experiment: SEC + other: intact protein mass spectrometry
[3] = biological target: C-terminally myc-tagged ClpP2 (ClpP2-2×myc) (L. monocytogenes (endogenous gene in L. monocytogenes EGD-e)); experiment: affinity purification with mass spectrometry
[4] = biological target: ClpP2 co-expressed with ClpP1 in E. coli (L. monocytogenes); experiment: SEC

Substance: ClpP1 co-expressed with ClpP2 in E. coli (enzyme)
- stoichiometry N [1]: 7

Substance: ClpP1 with a C-terminal Strep-tag II (heptamer, ClpP1_(7)) (enzyme)
- percent ClpP1 in the tetradecamer peak (intact protein MS) [2]: 47 to 49%

Substance: ClpP2 co-expressed with ClpP1 in E. coli (enzyme)
- stoichiometry N [4]: 14

More lines, now with the values ahead:

- fold enrichment at 42 °C against 20 °C [3]: 6 fold
Substance: ClpP1, endogenous in L. monocytogenes (enzyme)

- stoichiometry N [2]: 14
Substance: Full-length ClpP2 with a C-terminal Strep-tag II (tetradecamer, ClpP2_(14)) (enzyme)
